Experimental data from patent US20240180855A1, “BIOACTIVE PRODUCTS” (priority 2021, published 2024).

Tested on: wheat
Experiment: Wheat growth after seed treatment with complexes of inhibitors and nucleases (Example 5)
Type: in vivo
Conditions: seeds treated 1 hour at 37° C.; cultivation 23° C.
Protocol: Plant: wheat Treatment: The seeds were treated with various products for 1 hour, at 37° C. […] Cultivation temperature 23° C.

B1: Proteinase K: protease (protein, UniProt P06873 106-384, looked up)
Proteinase K: AAQTNAPWGLARISSTSPGTSTYYYDESAGQGSCVYVIDTGIEASHPEFEGRAQMVKTYYYSSRDGNGHGTHCAGTVGSRTYGVAKKTQLFGVKVLDDNGSGQYSTIIAGMDFVASDKNNRNCPKGVVASLSLGGGYSSSVNSAAARLQSSGVMVAVAAGNNNADARNYSPASEPSVCTVGASDRYDRRSSFSNYGSVLDIFGPGTSILSTWIGGSTRSISGTSMATPHVAGLAAYLMTLGKTTAASACRYIADTANKGDLSNIPFGTVNLLAYNNYQA
- Chlorophyll total: 35.2 mg/g
- Emergence (%): 42%
- Root lenght: 4.3
- Shoot length: 0.0
